Entries after “also recorded” stand apart in the source; their conditions may differ. Like-named read-outs stand apart in the source and are kept apart here.
Legend:
[1] = test system: MET, AKT and ERK phosphorylation; experiment: Western blot of MET signaling, NSCLC and HeLa cell lines; type: cell-based, human; details: 5 nM, 4 h, positive control
Protocol: To determine if 1E7-Fc by itself was a therapeutic and inhibited MET signaling, as has been seen with other MET antibodies such as onartuzumab and emibetuzumab (De Mello et al. 2020), we performed a cell proliferation assay and Western blot to query effects of 1E7-Fc on cell behavior and downstream signaling pathways. Cell viability was measured using a panel of the same four cell lines. […] In contrast, treatment with the FDA-approved MET TKI, capmatinib, blocked MET, AKT, and ERK phosphorylation, as anticipated (FIG. 4B).
Cells were seeded in 10 cm dishes and treated with either control (PBS), 10 nM, or 100 nM 1E7-Fc when cells were reached about 75% confluency, and then cells were harvested 4 h after treatment. Five nM Capmatinib was used as a positive control. Cell lysates were generated as previously described (SenthilKumar et al. 2020).

[2] = test system: MET, AKT and ERK phosphorylation; experiment: Immunoblot of MET downstream signaling, Detroit 562 and T-47D; type: cell-based, human; details: 5 nM, positive control
Protocol: To determine if 1E7-Fc by itself was therapeutic and inhibited MET signaling, both cell proliferation assays and western blotting examining MET downstream signaling were evaluated in Detroit […] cell and T-47D as a negative control. The MET tyrosine kinase inhibitor capmatinib was used as a positive control for MET downstream signaling.
Cells were seeded in 10-cm dishes and treated with either control (i.e., PBS), 10 nM, or 100 nM 1E7-Fc when cells reached about 75% confluency, and then cells were harvested 4, 24, or 48 h after treatment. Capmatinib (5 nM) was used as a positive control for inhibition of MET signaling. Cell lysates were prepared as previously described (Könning et al. 2017). Equal amounts of protein were analyzed by sodium dodecyl-sulfate polyacrylamide gel electrophoresis (SDS-PAGE), transferred to polyvinylidene fluoride membranes, and probed with specific primary antibodies. Targets were detected with horseradish peroxidase (HRP)-conjugated secondary antibodies (BioRad) using Enhanced Chemiluminescence western blot substrates (Pierce) and imaged on a LI-COR Odyssey Fc. The specific antibodies are as listed: MET, phospho-MET (Tyr1234/1235), AKT, phosphor-AKT (Ser473), p44/42 MAPK (Erk1/2), phosphor-p44/42 MAPK (Erk1/2) *Thr202/Try204), GAPDH.

murine MET = molecular target: T1, murine MET (Mus musculus, UniProt P16056); experiment: Dilution ELISA counter screen on murine MET; type: binding
T1 construct: biotin (biotinylated)
T1 sequence (P16056 25-1379): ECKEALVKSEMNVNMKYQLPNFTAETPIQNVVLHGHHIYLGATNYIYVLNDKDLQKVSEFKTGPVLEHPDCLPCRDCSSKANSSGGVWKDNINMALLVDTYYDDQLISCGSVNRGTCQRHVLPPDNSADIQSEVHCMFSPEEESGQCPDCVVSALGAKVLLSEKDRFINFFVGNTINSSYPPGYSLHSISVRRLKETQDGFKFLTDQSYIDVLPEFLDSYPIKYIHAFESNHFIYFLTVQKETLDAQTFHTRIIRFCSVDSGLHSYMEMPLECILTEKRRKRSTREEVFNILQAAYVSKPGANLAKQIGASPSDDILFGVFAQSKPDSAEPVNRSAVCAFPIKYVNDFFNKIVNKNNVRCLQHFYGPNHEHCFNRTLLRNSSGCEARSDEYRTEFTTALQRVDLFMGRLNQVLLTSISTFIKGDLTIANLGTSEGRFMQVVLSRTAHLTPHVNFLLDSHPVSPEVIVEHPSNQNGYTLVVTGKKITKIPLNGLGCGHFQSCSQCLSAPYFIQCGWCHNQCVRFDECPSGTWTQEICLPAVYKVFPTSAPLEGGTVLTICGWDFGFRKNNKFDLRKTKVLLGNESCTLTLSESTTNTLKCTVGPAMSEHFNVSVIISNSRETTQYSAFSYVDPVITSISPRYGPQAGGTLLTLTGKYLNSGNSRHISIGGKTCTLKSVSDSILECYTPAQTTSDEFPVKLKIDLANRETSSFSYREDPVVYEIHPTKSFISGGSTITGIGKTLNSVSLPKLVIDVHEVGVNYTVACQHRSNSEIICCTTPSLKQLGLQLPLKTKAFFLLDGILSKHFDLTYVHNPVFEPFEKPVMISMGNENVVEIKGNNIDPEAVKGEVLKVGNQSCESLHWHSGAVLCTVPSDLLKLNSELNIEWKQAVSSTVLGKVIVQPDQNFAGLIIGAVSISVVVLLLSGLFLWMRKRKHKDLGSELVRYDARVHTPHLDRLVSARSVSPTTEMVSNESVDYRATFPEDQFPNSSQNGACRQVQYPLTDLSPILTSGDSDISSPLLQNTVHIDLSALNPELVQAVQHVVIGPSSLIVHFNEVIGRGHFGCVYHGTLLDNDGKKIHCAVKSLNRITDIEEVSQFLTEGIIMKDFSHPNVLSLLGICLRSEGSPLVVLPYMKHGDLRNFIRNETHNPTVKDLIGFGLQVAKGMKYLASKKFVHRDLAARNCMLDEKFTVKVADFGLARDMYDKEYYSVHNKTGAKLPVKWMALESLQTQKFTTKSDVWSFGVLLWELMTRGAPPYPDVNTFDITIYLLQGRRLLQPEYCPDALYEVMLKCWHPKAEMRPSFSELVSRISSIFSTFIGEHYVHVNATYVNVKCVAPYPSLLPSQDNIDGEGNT
Description: (§1) Next, we evaluated the ability of the three unique VHH clones (1E7, 1A2, and 2G9) to bind murine and rhesus monkey MET by performing ELISA counter screens. […] The three clones were expressed and purified for additional testing to identify a lead VHH. Biolayer interferometry (BLI) was next used to determine the affinity of each VHH domain for MET (FIGS. 3B-D, Table 7). […] The BLI and dilution ELISA data combined determined that 1E7 was the lead clone to for development into a VHH-Fc targeting MET.
(§2) Dilution ELISA: MaxiSorp plates were prepared as described above. 50 μL of biotinylated human cMET, murine cMET, or rhesus macaque cMET was added to the wells. 1E7 monomeric VHH was serial diluted from 1 μM to 15.6 nM in PBS, 1% BSA < and 0.005% Tween20 and added to each well. Wells with protein but no 1E7 VHH were used as a negative control. 1E7 binding was detected, as described above.

rhesus macaque MET = molecular target: T2, rhesus macaque MET (Macaca mulatta, UniProt F7H1K4); experiment: Dilution ELISA counter screen on rhesus macaque MET; type: binding
T2 construct: biotin (biotinylated)
T2 sequence (F7H1K4 25-1381): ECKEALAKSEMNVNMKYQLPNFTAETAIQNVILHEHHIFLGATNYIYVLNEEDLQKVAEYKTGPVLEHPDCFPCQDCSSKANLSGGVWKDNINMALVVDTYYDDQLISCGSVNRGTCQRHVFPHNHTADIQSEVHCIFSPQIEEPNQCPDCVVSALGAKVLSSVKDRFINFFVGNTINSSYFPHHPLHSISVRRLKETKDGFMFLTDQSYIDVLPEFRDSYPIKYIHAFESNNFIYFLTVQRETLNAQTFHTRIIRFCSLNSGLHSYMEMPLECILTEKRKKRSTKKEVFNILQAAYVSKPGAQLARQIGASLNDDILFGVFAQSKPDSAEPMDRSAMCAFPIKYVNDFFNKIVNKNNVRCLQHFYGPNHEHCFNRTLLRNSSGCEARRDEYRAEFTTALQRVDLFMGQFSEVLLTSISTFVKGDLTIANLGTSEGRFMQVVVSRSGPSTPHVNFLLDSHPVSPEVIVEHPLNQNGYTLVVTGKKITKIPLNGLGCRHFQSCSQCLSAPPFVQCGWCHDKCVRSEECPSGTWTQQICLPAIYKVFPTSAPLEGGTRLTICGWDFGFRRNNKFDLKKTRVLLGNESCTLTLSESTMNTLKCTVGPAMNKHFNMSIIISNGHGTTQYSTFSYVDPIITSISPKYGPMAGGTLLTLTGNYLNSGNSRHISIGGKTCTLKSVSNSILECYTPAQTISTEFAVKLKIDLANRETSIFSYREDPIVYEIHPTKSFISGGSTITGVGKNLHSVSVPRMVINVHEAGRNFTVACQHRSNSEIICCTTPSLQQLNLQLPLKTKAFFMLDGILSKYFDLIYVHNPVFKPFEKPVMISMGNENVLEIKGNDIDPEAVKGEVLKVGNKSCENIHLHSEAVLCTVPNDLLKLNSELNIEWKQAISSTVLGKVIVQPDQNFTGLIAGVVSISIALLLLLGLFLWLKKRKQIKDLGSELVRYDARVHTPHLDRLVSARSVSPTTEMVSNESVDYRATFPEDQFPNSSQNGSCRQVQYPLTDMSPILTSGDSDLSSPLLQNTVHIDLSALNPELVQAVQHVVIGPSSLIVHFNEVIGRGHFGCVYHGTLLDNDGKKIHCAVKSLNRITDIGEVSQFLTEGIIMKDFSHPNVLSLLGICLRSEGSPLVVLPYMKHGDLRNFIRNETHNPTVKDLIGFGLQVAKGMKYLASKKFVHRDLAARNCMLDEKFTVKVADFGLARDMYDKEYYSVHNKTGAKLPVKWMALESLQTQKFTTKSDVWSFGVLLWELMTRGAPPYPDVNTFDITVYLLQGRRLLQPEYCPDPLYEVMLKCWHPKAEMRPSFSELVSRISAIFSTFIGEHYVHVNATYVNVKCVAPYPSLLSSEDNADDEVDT
Description: as §1, §2

human MET [3] = molecular target: T3, human MET (Homo sapiens, UniProt P08581); experiment: Biolayer interferometry (BLI) of VHH domains on human MET; type: binding; details: for Ka / Kd: BLI curve fit; for Ka: association rate; for binding affinity to human MET (in words): comparison of the three VHH clones
T3 sequence (P08581 25-932 limits assumed): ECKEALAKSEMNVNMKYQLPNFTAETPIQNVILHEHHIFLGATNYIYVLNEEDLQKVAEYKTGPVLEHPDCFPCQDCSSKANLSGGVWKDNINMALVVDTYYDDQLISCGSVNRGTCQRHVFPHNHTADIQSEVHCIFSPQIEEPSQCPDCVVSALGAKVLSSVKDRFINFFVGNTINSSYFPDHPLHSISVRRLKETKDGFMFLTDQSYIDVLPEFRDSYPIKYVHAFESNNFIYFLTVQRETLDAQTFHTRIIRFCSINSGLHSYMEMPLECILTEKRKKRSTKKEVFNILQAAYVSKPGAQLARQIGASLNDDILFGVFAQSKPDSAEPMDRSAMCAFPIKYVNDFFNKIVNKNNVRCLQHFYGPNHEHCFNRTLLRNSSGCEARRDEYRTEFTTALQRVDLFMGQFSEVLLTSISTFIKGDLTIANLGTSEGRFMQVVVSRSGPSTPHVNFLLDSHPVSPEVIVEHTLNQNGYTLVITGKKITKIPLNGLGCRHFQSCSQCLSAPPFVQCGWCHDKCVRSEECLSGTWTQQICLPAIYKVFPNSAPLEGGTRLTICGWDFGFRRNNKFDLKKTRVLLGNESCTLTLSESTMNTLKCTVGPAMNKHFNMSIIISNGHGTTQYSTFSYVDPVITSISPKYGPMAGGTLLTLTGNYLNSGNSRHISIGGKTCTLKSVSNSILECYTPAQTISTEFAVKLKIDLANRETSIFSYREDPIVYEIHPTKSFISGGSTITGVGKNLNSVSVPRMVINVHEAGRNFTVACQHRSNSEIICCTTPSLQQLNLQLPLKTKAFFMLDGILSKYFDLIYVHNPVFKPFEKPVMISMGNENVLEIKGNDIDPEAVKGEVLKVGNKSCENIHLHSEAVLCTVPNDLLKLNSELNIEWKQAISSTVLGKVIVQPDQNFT

human MET [4] = molecular target: T3, human MET; experiment: Dilution ELISA on human MET; type: binding; design: Single-domain constructs specific to MET extracellular domain were identified from a naïve VHH antibody phage display library; biotin (biotinylated); details: for specificity for human versus rhesus macaque and murine MET: ELISA, FIG. 3A
Description: as §1, §2

[5] = dissociation rate, unit not given

Molecule	effect on MET, AKT and ERK phosphorylation [1]	effect on phosphorylation of MET [2]	binding to murine MET (murine MET)	binding to rhesus macaque MET (rhesus macaque MET)	kon and koff compared to the other clones (human MET [3]; BLI)	Ka (human MET [3]; unit not given)	Kd (human MET [3]; [5])	Kd (human MET [3]; nM, read-out: KD) [nM]	binding affinity to human MET (in words) (human MET [3])	ELISA signal on human MET (human MET [4]; dilution ELISA, unpurified VHH serially diluted)	specificity for human versus rhesus macaque and murine MET (human MET [4])
CNC(=O)c1ccc(-c2cnc3ncc(Cc4ccc5ncccc5c4)n3n2)cc1F [capmatinib, reference compound]	blocked	effectively blocked	–	–	–	–	–	–	–	–	–
1E7: anti-MET camelid VHH single-domain antibody from phage display, amino acid sequence SEQ ID NO:22 (protein) VHH: EVQLVESGGGLVQPGGSLRLSCEASGFNFERYDMSWVRQAPGKGPEWVSRLNSFGRSTYYLDSVKGRFTVSRDNAQNMLYLQMNNLKPEDTAVYYCARSTDVSPGLSSWWTYEYDVWGQGTQVTVSS	–	–	modest cross-reactivity; also recorded: minimal binding	modest cross-reactivity; also recorded: minimal binding	highest kon and the lowest koff	1.445 × 10^5	4.045 × 10^−2	27	high affinity; also recorded: highest binding affinity	strongest MET signal; also recorded: saturating ELISA signals	–
1A2: anti-MET camelid VHH single-domain antibody from phage display, amino acid sequence SEQ ID NO:24 (protein) VHH: EAQLVESGGGLVQPGGSLRLSCEASGFNFERYDMSWVRQAPGKGPEWVSRLNSFGRSTYYLDSVKGRFTVSRDTAKSTFYLQMNNLKPEDAGVYYCARSTDVSPGLSSWWTYEYDVWGQGTQVTVSS	–	–	modest cross-reactivity	modest cross-reactivity	–	1.865 × 10^5	2.869 × 10^−2	43	high affinity; also recorded: weaker binding affinities	–	did not show clear specificity
2G9: anti-MET camelid VHH single-domain antibody from phage display, amino acid sequence SEQ ID NO:26 (protein) VHH: EVQLVESGGALVQPGGSLRLSCAASGFTFGAYDMVWVRHATGKGPEWISFISNGGEEVSYASSVKDRFTISRDNAQNMLYLQMNNLKPEDTAVYYCARSTDVSPGLSSWWTYEYDVWGQGTLVTVSS	–	–	modest cross-reactivity	modest cross-reactivity	–	1.000 × 10^4	1.500 × 10^−3	159	high affinity; also recorded: weaker binding affinities	–	did not show clear specificity

— patent publication US20250152759A1, “SINGLE-DOMAIN ANTIBODIES AND VARIANTS THEREOF AGAINST MET” (Wisconsin Alumni Research Foundation, priority 2023, published 2025)
